In article PMC3965691 (Biochemistry, 2011):

T1: HI-2(1-152) (human, UniProt P41236 1-152)
T1 sequence (looked up): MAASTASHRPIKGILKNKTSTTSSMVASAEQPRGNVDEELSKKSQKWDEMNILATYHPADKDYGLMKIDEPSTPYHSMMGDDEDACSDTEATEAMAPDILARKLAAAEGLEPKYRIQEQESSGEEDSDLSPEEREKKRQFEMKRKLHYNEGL

B1: His6-HI-2 (human phosphatase inhibitor-2, wild type, full length) (natural protein, UniProt P41236 1-205, looked up)
chain: MAASTASHRPIKGILKNKTSTTSSMVASAEQPRGNVDEELSKKSQKWDEMNILATYHPADKDYGLMKIDEPSTPYHSMMGDDEDACSDTEATEAMAPDILARKLAAAEGLEPKYRIQEQESSGEEDSDLSPEEREKKRQFEMKRKLHYNEGLNIKLARQLISKDLHDDDEDEEMLETADGESMNTEESNQGSTPSDQQQNKLRSS
B2: HI-2(I68A) (natural protein, human, UniProt P41236 1-205, looked up)
chain: MAASTASHRPIKGILKNKTSTTSSMVASAEQPRGNVDEELSKKSQKWDEMNILATYHPADKDYGLMKADEPSTPYHSMMGDDEDACSDTEATEAMAPDILARKLAAAEGLEPKYRIQEQESSGEEDSDLSPEEREKKRQFEMKRKLHYNEGLNIKLARQLISKDLHDDDEDEEMLETADGESMNTEESNQGSTPSDQQQNKLRSS

Assays:
[1] = biological target: Pin1 free of GST (thrombin-cleaved GST-Pin1) (human, UniProt Q13526 1-163); assay: SEC
[2] = biological target: B1; assay: pull-down
[3] = biological target: B2; assay: pull-down
[4] = biological target: T1, HI-2(1-152); assay: pull-down

Row | stoichiometry N [1] | binding result [2] | Binder | also measured
1 | 1 I-2 per Pin1 (2:2) |  | B1 | 
2 | 1 I-2 per Pin1 (1:1) |  | B2 | 
3 |  | binds | MADEEKLPPGWEKRMSRSSGRVYYFNHITNASQWERPSGNSSSG (domain or fragment, human, UniProt Q13526 1-44, looked up, phosphoserine at 16 (PKA)) [PKA phosphorylated GST-Pin1ww] | 
4 |  |  | GST-Pin1iso (human Pin1 isomerase domain, residues 46-163, fused to GST) (domain or fragment, UniProt Q13526 46-163, looked up) KNGQGEPARVRCSHLLVKHSQSRRPSSWRQEKITRTKEEALELINGYIQKIKSGEEDFESLASQFSDCSSAKARGDLGAFSRGQMQKPFEDASFALRTGEMSGPVFTDSGIHIILRTE | binding result [3]: binds
5 |  | binds | MADEEKLPPGWEKRMSRSSGRVYYFNHITNASQWERPSGNSSSG (domain or fragment, UniProt Q13526 1-44, looked up) [GST-Pin1ww (human Pin1 WW domain, residues 1-44, fused to GST)] | binding result [4]: binds
